Patent US20180057604A1 (Genentech, published 2018)
Read-outs that look alike come from different tables or passages of the source.

How the values were obtained:
[1] = biological target: T1, human BACE1 (R&D Systems) (human, UniProt P56817); assay: SPR (Biacore), second run
T1 construct: recombinant, commercial (R&D Systems)

[2] = biological target: T1, human BACE1 (R&D Systems); assay: SPR (Biacore)
[3] = biological target: T2, human BACE1 ECD; assay: Octet, pH 7.5, second run
T2 construct: analyte of the Octet assay (200 nM) and enzyme of the first short substrate assay; also called human BACE1 extracellular domain

[4] = biological target: T3, murine BACE1 ECD; assay: Octet, pH 7.5, second run
T3 construct: analyte of the Octet assay (200 nM) and enzyme of the first short substrate assay

[5] = biological target: T2, human BACE1 ECD; assay: Octet, pH 5.0, second run
[6] = biological target: T3, murine BACE1 ECD; assay: Octet, pH 5.0, second run
[7] = biological target: T2, human BACE1 ECD; assay: Octet, pH 7.5
[8] = biological target: T3, murine BACE1 ECD; assay: Octet, pH 7.5
[9] = biological target: T2, human BACE1 ECD; assay: cell-based or functional assay
[10] = biological target: T3, murine BACE1 ECD; assay: cell-based or functional assay
[11] = biological target: T4, BACE1 (HTRF long substrate and FRET short substrate assays of Example 9D); assay: cell-based or functional assay
[12] = biological target: T2, human BACE1 ECD; assay: Octet, pH 5.0
[13] = biological target: T3, murine BACE1 ECD; assay: Octet, pH 5.0
[14] = biological target: T5, BACE1 in primary mouse cortical neurons (mouse, UniProt P56818 46-501); assay: cell-based or functional assay
[15] = biological target: T5, BACE1 in primary mouse cortical neurons; assay: cell-based or functional assay; remark: listed apart in the source
[16] = biological target: T1, human BACE1 (R&D Systems); assay: SPR (Biacore); remark: listed apart in the source
[17] = biological target: T2, human BACE1 ECD; assay: Octet, pH 5.0; remark: listed apart in the source
[18] = biological target: T3, murine BACE1 ECD; assay: Octet, pH 5.0; remark: listed apart in the source
[19] = biological target: T2, human BACE1 ECD; assay: Octet, pH 7.5; remark: listed apart in the source
[20] = biological target: T3, murine BACE1 ECD; assay: Octet, pH 7.5; remark: listed apart in the source
[21] = biological target: T6, human TfR extracellular domain with N-terminal His tag (human, UniProt P02786 89-760); assay: ELISA, IgG
T6 construct: Biotinylated in some assays; also called huTfR; HuTfR

[22] = biological target: T7, cyno TfR extracellular domain (analogous construct to human TfR ecd) (cynomolgus monkey, UniProt Q5RDH6 87-760 (Pongo abelii entry)); assay: ELISA, IgG
T7 construct: also called cynoTfR ecd
T7 chain: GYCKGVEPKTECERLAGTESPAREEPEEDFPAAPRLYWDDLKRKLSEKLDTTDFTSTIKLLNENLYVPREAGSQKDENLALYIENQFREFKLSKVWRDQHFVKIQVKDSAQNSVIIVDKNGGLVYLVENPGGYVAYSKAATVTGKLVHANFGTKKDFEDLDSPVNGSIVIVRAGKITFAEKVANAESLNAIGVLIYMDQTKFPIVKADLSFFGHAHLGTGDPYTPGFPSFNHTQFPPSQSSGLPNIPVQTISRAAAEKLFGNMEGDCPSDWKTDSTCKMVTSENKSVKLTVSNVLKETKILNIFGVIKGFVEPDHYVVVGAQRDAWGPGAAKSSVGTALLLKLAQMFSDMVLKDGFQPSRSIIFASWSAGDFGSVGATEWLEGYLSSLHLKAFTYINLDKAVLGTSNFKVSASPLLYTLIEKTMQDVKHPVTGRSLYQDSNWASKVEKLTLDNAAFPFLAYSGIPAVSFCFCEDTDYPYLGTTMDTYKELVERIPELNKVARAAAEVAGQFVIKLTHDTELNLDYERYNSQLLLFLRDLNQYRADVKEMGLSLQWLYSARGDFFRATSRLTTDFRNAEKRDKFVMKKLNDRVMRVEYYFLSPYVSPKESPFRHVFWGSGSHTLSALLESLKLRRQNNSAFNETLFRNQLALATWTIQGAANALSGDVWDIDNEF

[23] = biological target: T6, human TfR extracellular domain with …; assay: ELISA, immobilized huTfR, with and without 6.3 uM holo-Tf
[24] = biological target: T6, human TfR extracellular domain with …; assay: ELISA, TfR-coated plate, IgG
[25] = biological target: T7, cyno TfR extracellular domain …; assay: ELISA, TfR-coated plate, IgG
[26] = biological target: T6, human TfR extracellular domain with …; assay: SPR, IgG;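 further: His-tagged TfR captured via immobilized anti-His antibody on a CM5 chip, antibody injected in 3-fold dilution series by single cycle kinetics, 1:1 Langmuir or steady-state fit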
[27] = biological target: T7, cyno TfR extracellular domain …; assay: SPR, IgG;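 further: His-tagged TfR captured via immobilized anti-His antibody on a CM5 chip, antibody injected in 3-fold dilution series by single cycle kinetics, 1:1 Langmuir or steady-state fit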
[28] = biological target: T6, human TfR extracellular domain with …; assay: SPR SCK 1:1 fit, IgG
[29] = biological target: T7, cyno TfR extracellular domain …; assay: SPR SCK 1:1 fit, IgG
[30] = biological target: T1, human BACE1 (R&D Systems); assay: SPR (Biacore); remark: listed apart in the source
[31] = biological target: T2, human BACE1 ECD; assay: Octet, pH 5.0; remark: listed apart in the source
[32] = biological target: T3, murine BACE1 ECD; assay: Octet, pH 5.0; remark: listed apart in the source
[33] = biological target: T2, human BACE1 ECD; assay: Octet, pH 7.5, second run; remark: listed apart in the source
[34] = biological target: T3, murine BACE1 ECD; assay: Octet, pH 7.5, second run; remark: listed apart in the source
[35] = biological target: T2, human BACE1 ECD; assay: Octet, pH 5.0, second run; remark: listed apart in the source
[36] = biological target: T3, murine BACE1 ECD; assay: Octet, pH 5.0, second run; remark: listed apart in the source
[37] = biological target: T1, human BACE1 (R&D Systems); assay: SPR (Biacore), second run; remark: listed apart in the source
[38] = biological target: T2, human BACE1 ECD; assay: Octet, pH 7.5; remark: listed apart in the source
[39] = biological target: T3, murine BACE1 ECD; assay: Octet, pH 7.5; remark: listed apart in the source
[40] = biological target: T4, BACE1 (HTRF long substrate and FRET …); assay: cell-based or functional assay; remark: listed apart in the source

T5 sequence (P56818 46-501): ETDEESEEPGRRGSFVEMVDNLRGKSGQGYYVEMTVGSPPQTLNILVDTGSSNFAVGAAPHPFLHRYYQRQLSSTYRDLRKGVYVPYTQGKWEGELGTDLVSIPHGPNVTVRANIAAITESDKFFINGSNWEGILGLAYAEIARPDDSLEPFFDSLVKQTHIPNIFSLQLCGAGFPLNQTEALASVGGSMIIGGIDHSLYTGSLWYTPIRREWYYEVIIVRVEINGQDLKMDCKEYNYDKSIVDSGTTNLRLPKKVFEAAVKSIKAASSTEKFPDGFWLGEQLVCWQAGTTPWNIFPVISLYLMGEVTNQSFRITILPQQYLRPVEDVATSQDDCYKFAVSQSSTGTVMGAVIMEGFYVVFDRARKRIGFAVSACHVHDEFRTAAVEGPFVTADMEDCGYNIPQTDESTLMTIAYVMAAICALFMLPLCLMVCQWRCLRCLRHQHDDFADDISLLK
T3 sequence (single chain, as listed by the source limits assumed): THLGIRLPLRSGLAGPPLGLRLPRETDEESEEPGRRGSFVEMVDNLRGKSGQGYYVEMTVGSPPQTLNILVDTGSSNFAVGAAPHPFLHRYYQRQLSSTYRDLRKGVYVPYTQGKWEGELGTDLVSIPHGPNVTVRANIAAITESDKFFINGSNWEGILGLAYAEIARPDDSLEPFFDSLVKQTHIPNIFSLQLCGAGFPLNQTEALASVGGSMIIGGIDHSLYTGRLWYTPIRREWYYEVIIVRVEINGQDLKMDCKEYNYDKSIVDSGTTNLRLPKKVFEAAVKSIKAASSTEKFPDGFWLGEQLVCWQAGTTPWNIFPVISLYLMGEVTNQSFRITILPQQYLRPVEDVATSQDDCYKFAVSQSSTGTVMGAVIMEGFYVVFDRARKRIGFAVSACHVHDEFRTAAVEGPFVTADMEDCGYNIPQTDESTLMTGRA
T2 sequence (single chain, as listed by the source limits assumed): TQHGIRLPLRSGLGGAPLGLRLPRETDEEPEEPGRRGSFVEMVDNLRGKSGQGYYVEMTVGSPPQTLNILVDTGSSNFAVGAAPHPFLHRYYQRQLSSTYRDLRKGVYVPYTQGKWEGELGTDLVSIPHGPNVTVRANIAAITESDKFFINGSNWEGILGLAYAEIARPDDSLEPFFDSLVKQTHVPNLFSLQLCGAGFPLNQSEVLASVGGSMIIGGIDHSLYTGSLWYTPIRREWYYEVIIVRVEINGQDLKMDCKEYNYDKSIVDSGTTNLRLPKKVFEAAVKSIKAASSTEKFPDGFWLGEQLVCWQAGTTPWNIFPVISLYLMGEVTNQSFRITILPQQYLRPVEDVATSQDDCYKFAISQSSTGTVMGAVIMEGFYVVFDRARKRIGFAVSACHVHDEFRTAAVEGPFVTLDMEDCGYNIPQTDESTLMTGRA
T1 sequence (P56817 22-457 limits assumed): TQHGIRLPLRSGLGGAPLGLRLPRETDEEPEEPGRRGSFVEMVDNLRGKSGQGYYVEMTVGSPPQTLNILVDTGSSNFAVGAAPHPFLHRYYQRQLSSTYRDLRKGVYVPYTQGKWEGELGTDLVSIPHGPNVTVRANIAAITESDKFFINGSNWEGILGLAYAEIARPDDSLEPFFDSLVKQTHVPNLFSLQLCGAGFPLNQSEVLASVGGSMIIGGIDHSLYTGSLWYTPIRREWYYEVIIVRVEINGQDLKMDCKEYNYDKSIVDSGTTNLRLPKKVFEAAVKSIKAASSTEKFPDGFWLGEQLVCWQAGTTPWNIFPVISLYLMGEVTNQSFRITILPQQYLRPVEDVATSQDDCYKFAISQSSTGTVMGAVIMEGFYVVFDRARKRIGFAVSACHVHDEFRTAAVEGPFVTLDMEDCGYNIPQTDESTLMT

B1: 5896 (antibody, V domains shown)
VH: QLQLQESGPGLVKPSETLSLTCTVSGGSISSSSYYWGWIRQPPGKGLEWIGSIYRSGSTYYNPSLKSRVTISVDTSKNQFSLKLSSVTAADTAVYYCARVGHGISYFDLWGRGTLVTVSS
VL: EIVLTQSPATLSLSPGERATLSCRASQSVSSYLAWYQQKPGQAPRLLIYDASNRATGIPARFSGSGSGTDFTLTISSLEPEDFAVYYCQQSLTWPPRTFGGGTKVEIK
notes: anti-BACE1 IgG
Kd [1]: 5.18 nM | Kd [2]: 3.4 nM | Kd [3]: 0.71 nM | Kd [4]: 0.8 nM | Kd [5]: 1.1 nM | Kd [6]: 1 nM | Kd [7]: 1.9 nM | Kd [8]: 2.9 nM | % inhibition of BACE1 activity, short FRET substrate [9]: -4% | % inhibition of BACE1 activity, short FRET substrate [10]: -3% | EC50, FRET short substrate [11]: 3.35 nM | EC50, HTRF long substrate [11]: 3.46 nM | Kd [12]: 3 nM | Kd [13]: 3.1 nM | IC50, Abeta x-40 in mouse cortical neurons [14]: 2.7 nM | IC50, Abeta x-40 in mouse cortical neurons (5896*, second run) [14]: 5.72 nM | maximal % inhibition of Abeta x-40 [14]: 65%

B2: 6310 (antibody, V domains shown)
VH: QLQLQESGPGLVKPSETLSLTCTVSGGSISWSSYYWSWIRQPPGKGLEWIGSIYRSGRTYYNPSLKSRVTISVDTSKNQFSLKLSSVTAADTAVYYCARVGHGINYFDLWGRGTLVTVSS
VL: EIVLTQSPATLSLSPGERATLSCRASQSVSSYLAWYQQKPGQAPRLLIYDASNRATGIPARFSGSGSGTDFTLTISSLEPEDFAVYYCQQSVTWPPRTFGGGTKVEIK
notes: anti-BACE1 IgG
IC50, Abeta x-40 in mouse cortical neurons [15]: 0.17 nM | maximal % inhibition of Abeta x-40 [15]: 71% | Kd [16]: 1.63 nM | Kd [17]: 0.44 nM | Kd [18]: 0.5 nM | Kd [19]: 0.46 nM | Kd [20]: 0.47 nM

B3: hu15G11.v5 IgG (antibody, V domains shown)
VH: EVQLVQSGAEVKKPGASVKVSCKASGYTFTSYWMHWVRQAPGQRLEWIGEINPTNGRTNYIEKFKSRATLTVDKSASTAYMELSSLRSEDTAVYYCARGTRAYHYWGQGTMVTVSS
VL: DIQMTQSPSSLSASVGDRVTITCRASDNLYSNLAWYQQKPGKSPKLLVYDATNLADGVPSRFSGSGSGTDYTLTISSLQPEDFATYYCQHFWGTPLTFGQGTKVEIK
notes: Human IgG (detected with anti-human Fc gamma); also called humanized 15G11.v5
EC50 [21]: 16 ng/mL | EC50 [22]: 20 ng/mL | EC50 (read off the curve) [23]: ~5 ng/mL | EC50 [24]: 0.8 ng/mL | EC50 [25]: 1.8 ng/mL | Kd [26]: 3.33 nM | Kd [27]: 11.8 nM | Kd [28]: 3.3 nM | Kd [29]: 12 nM

B4: 5884 (antibody, V domains shown)
VH: QVQLVQSGAEVKKPGSSVKVSCKASGGTFSGYGISWVRQAPGQGLEWMGNIIPGFGTANYAQKFQGRVTITADESTSTAYMELSSLRSEDTAVYYCARSGGTKYGMLDVWGQGTMVTVSS
VL: EIVMTQSPATLSVSPGERATLSCRASQSVSSNLAWYQQKPGQAPRLLIYGASTRATGIPARFSGSGSGTEFTLTISSLQSEDFAVYYCQQLILWPPRTFGGGTKVEIK
notes: anti-BACE1 IgG
Kd [30]: 2.62 nM | Kd [31]: 1.4 nM | Kd [32]: 2 nM | % inhibition of BACE1 activity, short FRET substrate [9]: -102% | % inhibition of BACE1 activity, short FRET substrate [10]: -243% | Kd [33]: 0.46 nM | Kd [34]: 0.49 nM | Kd [35]: 0.86 nM | Kd [36]: 1.3 nM | Kd [37]: 5.23 nM | Kd [38]: 0.92 nM | Kd [39]: 1.3 nM | EC50, FRET short substrate [40]: 0.478 nM | EC50, HTRF long substrate [40]: 7.76 nM | IC50, Abeta x-40 in mouse cortical neurons [14]: 4.56 nM | IC50, Abeta x-40 in mouse cortical neurons (5884*, second run) [14]: 3.51 nM | maximal % inhibition of Abeta x-40 [14]: 83%

B5: 6303 (antibody, V domains shown)
VH: QVQLVQSGAEVKKPGSSVKVSCKASGGTLSGYAISWVRQAPGQGLEWMGNIIPGFGTANYAQKSQGRVTITADESTSTAYMELSSLRSEDTAVYYCARSGGTRYGMLDVWGQGTMVTVSS
VL: EIVMTQSPATLSVSPGERATLSCRASQSVSSNLAWYQQKPGQAPRLLIFGASTRATGIPARFSGSGSGTEFTLTISSLQSEDFAVYYCQQLLTWPPRTFGGGTKVEIK
notes: anti-BACE1 IgG
IC50, Abeta x-40 in mouse cortical neurons [15]: 4.1 nM | maximal % inhibition of Abeta x-40 [15]: 76% | Kd [16]: 3.09 nM | Kd [17]: < 0.26 nM | Kd [18]: < 0.32 nM | Kd [19]: < 0.32 nM | Kd [20]: < 0.35 nM
